Reference: patent US20240192201, “BRAIN NATRIURETIC PEPTIDE APTAMER FLUORESCENCE DETECTION DEVICE BASED ON SMART PHONE AND SENSING METHOD OF SAME” (TianJin University, published 2024)

Target: BNP (brain natriuretic peptide) (UniProt P16860 P16860:103-134)
Test: FRET recovery from carboxylated graphene oxide quencher (40 ug/ml), 100 nmol/L aptamer, pH 7.2-7.4, room temperature, 35 min
Settings: label: 5'-FAM
Excerpt: The signal response relationship between BNP concentration and fluorescence intensity obtained by detecting BNP in the present invention, its specific detection steps are as follows: [0080] (1) Blank control experiment: individually detect the fluorescence intensity of 100 nmol/L aptamer solution, and set the excitation wavelength as 492 nm, the emission wavelength as 519 nm, and the emission spectrum detection range as 505-610 nm, then use the obtained results as controls. [0081] (2) Mix 100 nmol/L of aptamer solution with 40 ug/ml of carboxylated graphene oxide solution by equal volume, and control the pH value of the solution at 7.2-7.4, and then leave it at room temperature for about 20 min. Then add BNP solution having a series of concentration gradients, respectively, leave it at room temperature for about 35 min, next take out an appropriate amount of mixed solution for fluorescence detection, and record fluorescence spectra at different concentrations. […] With the increase of the BNP concentration, the fluorescence intensity of the solution gradually increases. [0082]

Chain of BNP (brain natriuretic peptide) (P16860 103-134, one chain of several): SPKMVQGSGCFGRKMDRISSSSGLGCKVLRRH

B1: FAM-labelled BNP aptamer (ssDNA)
DNA: TTTTTTTATACGGGAGCCAACACCACCTCTCACATTATATTGTGAATACTTCGTGCTGTTTAGAGCAGGTGTGACGGAT
B1: binds.
